T1: CAPRIN-1 protein expressed on the cell surface of human cancer cells (human, UniProt Q14444 2-709)
T1 sequence (looked up): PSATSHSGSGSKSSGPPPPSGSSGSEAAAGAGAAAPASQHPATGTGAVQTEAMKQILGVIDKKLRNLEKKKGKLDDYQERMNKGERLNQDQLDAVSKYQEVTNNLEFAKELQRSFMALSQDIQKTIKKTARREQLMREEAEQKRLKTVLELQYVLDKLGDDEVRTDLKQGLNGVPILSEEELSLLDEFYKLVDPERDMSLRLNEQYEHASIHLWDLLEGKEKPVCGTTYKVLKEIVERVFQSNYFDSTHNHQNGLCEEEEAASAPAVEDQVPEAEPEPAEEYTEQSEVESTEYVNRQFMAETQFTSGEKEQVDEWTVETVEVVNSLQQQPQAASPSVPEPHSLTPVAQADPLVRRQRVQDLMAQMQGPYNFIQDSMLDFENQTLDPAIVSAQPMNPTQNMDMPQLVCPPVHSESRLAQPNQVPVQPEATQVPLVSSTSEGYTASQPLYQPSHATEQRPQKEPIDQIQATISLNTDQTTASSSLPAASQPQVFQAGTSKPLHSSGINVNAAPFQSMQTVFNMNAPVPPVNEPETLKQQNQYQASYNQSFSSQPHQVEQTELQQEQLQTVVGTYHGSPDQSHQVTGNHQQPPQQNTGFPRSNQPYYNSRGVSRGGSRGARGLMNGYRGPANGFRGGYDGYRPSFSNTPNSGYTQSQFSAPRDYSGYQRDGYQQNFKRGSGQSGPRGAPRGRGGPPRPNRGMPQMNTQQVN

T2: polypeptide comprising the amino acid sequence set forth in SEQ ID NO: 269 (human)
T2 peptide: PPVNEPETLKQQNQYQAS

T3: polypeptide set forth in SEQ ID NO: 266 (human)
T3 construct: Identified from ELISA on 93 synthetic peptides of 12 to 16 amino acids of human CAPRIN-1
T3 peptide: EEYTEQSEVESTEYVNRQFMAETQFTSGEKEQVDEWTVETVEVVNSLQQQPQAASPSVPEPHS

T4: peptide set forth in SEQ ID NO: 267 (human)
T4 peptide: QQPQAASPSVPE

T5: polypeptide set forth in SEQ ID NO: 431 (human)
T5 peptide: VERVFQSNYFDSTHNH

T6: polypeptide set forth in SEQ ID NO: 430 (human)
T6 peptide: ATQVPLVSSTSEGYTA

T7: human CAPRIN-1 recombinant protein (human, UniProt Q14444 1-709)
T7 construct: also called CAPRIN-1 protein; antigen protein (human CAPRIN-1 protein)
T7 sequence: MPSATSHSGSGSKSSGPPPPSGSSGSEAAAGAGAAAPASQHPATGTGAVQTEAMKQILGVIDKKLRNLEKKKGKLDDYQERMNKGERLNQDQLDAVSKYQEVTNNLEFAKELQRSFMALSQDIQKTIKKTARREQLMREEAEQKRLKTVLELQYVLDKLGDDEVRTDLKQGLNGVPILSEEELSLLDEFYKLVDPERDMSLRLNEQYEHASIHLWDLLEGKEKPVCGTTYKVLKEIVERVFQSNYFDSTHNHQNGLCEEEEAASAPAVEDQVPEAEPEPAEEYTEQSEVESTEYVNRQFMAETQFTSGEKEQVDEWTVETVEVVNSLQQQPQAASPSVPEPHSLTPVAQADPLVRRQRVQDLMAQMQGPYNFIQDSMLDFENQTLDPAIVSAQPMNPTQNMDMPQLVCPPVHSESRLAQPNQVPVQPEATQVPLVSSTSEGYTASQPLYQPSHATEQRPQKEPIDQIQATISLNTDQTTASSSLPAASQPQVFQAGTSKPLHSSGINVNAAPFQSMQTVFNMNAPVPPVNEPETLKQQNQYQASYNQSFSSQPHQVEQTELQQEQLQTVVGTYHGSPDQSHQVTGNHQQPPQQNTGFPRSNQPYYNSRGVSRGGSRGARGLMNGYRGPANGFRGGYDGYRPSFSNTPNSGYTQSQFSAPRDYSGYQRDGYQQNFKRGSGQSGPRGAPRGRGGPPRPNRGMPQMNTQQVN

B1: human-chicken chimeric antibody #3 (antibody, human IgG1, kappa, V domains shown)
VH: AVTLDESGGGLQTPGGALSLVCKASGFTFSGYDMLWVRQAPGKGLEWVAGIGSTGGGTDYGAAVKGRATISRDNGQSTVRLQLNNLRAEDTATYYCAKVAGGCNSGYCRDSPGSIDAWGHGTEVIVSA
VL: AVTQQPASVSANPGETVKITCSGGGSRNYYGWYQQKSPGSVPVTVIYYDDQRPSNIPSRFSGALSGSTSTLTITGVQADDEAVYFCGSADSNTYEGSFGAGTTLTVLT
notes: Produced 'similarly' to human-chicken chimeric antibody #1 from chicken monoclonal antibody #3; also called human-chicken chimeric monoclonal antibody #3
B2: human-chicken chimeric antibody #1 (antibody, human IgG1, kappa, V domains shown)
VH: AVTLDESGGGLQMSRGGLSLVCKASGFDFSSYQMNWIRQAPGKGLEFVAAINKFGNSTGHGAAVKGRVTISRDNGQSTVRLQLNNLRAEDTAIYFCTKHAYGYCGSGTWCAAGEIDAWGHGTEVIVSS
VL: QAASTQPSSVSANPGETVEITCSGGGSYSYGWFQQKSPGSAPVTVIYYNNKRPSDIPSRFSGSKSGSTGTLTITGVQADDEAVYYCGSGDSTDTAVFGAGTTLTVLG
notes: also called human-chicken chimeric monoclonal antibody #1
B3: mouse anti-CAPRIN-1 antibody #34 (antibody, V domains shown)
VH: GAELVRPGTSVKVSCKASVYAFTNYLIEWVKQRPGQGLEWIGVINPKSGGTKYNEKFRGKATLTADKSSSTAYMQLSSLTSGDSAVYFCAITGTDYWGQGTTLTVSS
VL: QGTRCDIQMTQTTSSLSASLGDRVTISCSASQGINNYLNWYQQKPDGTVKLLIYYTSSLRSGVPSRFSGSGSGTDYSLTISNLEPEDVATYYCQQYSKLPRTFGGGTKLEIKR
notes: mouse hybridoma antibody; also called mouse anti-CAPRIN-1 monoclonal antibody #34; mouse anti-CAPRN-1 antibody #34
B4: mouse monoclonal antibody #4 (antibody, V domains shown)
VH: GAELVRSGASVKMSCKASGYSFTDYNMYWVKQTPGQGLEWIGYIYPGNGGTNYNQKFKGKATLTADTSSSTAYMQISSLTSEDSAVYFCARDYDDGGYAMDYWGQGTTVTVSS
VL: DIQMTQSPASLSASVGETVTITCRASGNIHNYLTWYQQKQGKSPQLLVYNAKTLADGVPSRFSGSGSGTQYSLKINRLQPEDFGSYYCQHFWNIPWTFGGGTKLNSR
notes: mouse hybridoma antibody; also called anti-CAPRIN-1 mouse monoclonal antibody #4; anti-CAPRIN-1 monoclonal antibody #4
B5: humanized anti-CAPRIN-1 antibody #3 (antibody, human IgG1, V domains shown)
VH: EVQLVESGGGLVQPGGSLRLSCAASGFSFSGSYYMSWVRQAPGKGLEWIAYIYIGDGVTAYANWAKGRFTISRDNSKNTLYLQMNSLRAEDTAVYYCARGNKLWGPGTLVTVSS
VL: DIQMTQSPSSLSASVGDRVTIKCQASQSISSYLAWYQQKPGKAPKRLIYDASNLDSGVPSRFSGSGSGTDFTFTISSLQPEDIATYYCQCTAVSSATIYGNAFGGGTKVEIK

Legend:
[1] = target: T1, CAPRIN-1 protein expressed on the cell …; test: cell-based or functional assay
[2] = target: T2, polypeptide comprising the amino acid …; test: ELISA on immobilized synthetic CAPRIN-1 peptides, culture supernatant
[3] = target: T3, polypeptide set forth in SEQ ID NO: 266; test: as above
[4] = target: T4, peptide set forth in SEQ ID NO: 267; test: as above
[5] = target: T1, CAPRIN-1 protein expressed on the cell …; test: flow cytometry, TGBC14TKB cells, antibody 20 ug/mL, secondary antibody only as control
Description: (§1) A human gallbladder cancer cell line TGBC14TKB was investigated whether or not a CAPRIN-1 protein is expressed on the cell surface. 5×10⁵ cells of the gallbladder cancer cell line were centrifuged with a 1.5-mL micro centrifugation tube. The cells were subjected to reaction with each mouse anti-CAPRIN-1 antibody at a final concentration of 20 μg/mL, followed by being left to stand on ice for 1 hour. After washing with PBS, the cells were reacted with a 100-fold diluted Alexa488-labeled goat anti-mouse IgG antibody (manufactured by life technologies), followed by being left to stand on ice for […]. After washing with PBS, the fluorescence intensity was measured with FACS Calibur available from Becton, Dickinson and Company. As a negative control, only the secondary antibody was used in the reaction.
as §1, with “cell surface using mouse anti-CAPRIN-1 monoclonal antibodies #30 to #36.” for “cell surface.”, “of TGBC14TKB” for “of the gallbladder cancer cell line”, “each of” for “each”, “anti-CAPRIN-1 antibodies #30 to #36” for “anti-CAPRIN-1 antibody”, “Company. Separately, the cells were subjected to reaction with” for “Company. As a negative control,”, “antibody as a negative control.” for “antibody was used in the reaction.”

[6] = target: T5, polypeptide set forth in SEQ ID NO: 431; test: ELISA on immobilized synthetic CAPRIN-1 peptides, culture supernatant
[7] = target: T1, CAPRIN-1 protein expressed on the cell …; test: flow cytometry, TGBC14TKB cells, culture supernatant, isotype control antibody as control
Description: Subsequently, a gallbladder cell line TGBC14TKB, which was confirmed to express a CAPRIN-1 gene, was investigated for whether or not a CAPRIN-1 protein is expressed on the surfaces of these cells. 1×10⁶ cells of TGBC14TKB were centrifuged with a 1.5-mL micro centrifugation tube. To the cells was added the culture supernatant (100 μL) containing any of anti-CAPRIN-1 mouse monoclonal antibodies #1 to #22 reacting to cancer cell surface produced in Example 4 and anti-CAPRIN-1 mouse-chicken chimeric antibodies #1 to #3 produced in the above (2), followed by being left to stand on ice for 1 hour. After washing with PBS, the cells were suspended in a FITC-labeled goat anti-mouse IgG antibody (manufactured by life technologies) diluted by 500-fold with PBS containing 0.1% FBS, followed by being left to stand on ice for 1 hour. After washing with PBS, the fluorescence intensity was measured with FACS Calibur available from Becton, Dickinson and Company. Separately, as a control, the same procedure as in above was performed using an iso-type control antibody, instead of the culture supernatants containing the anti-CAPRIN-1 mouse monoclonal antibodies #1 to #22 and the mouse-chicken chimeric antibodies #1 to #3. As a result, the fluorescence intensity in the cells to which any of the monoclonal antibodies #1 to #22 and the mouse-chicken chimeric antibodies #1 to #3 was added was 20% or more higher than that in the control in every case. Specifically, in the case of using mouse-chicken chimeric antibody #1, the fluorescence intensity was enhanced by 200% or more. […] The rate of increase in the fluorescence intensity is represented by the rate of increase in the mean fluorescence intensity (MFI value) in each cell and is calculated by the following calculation formula: […]

[8] = target: T6, polypeptide set forth in SEQ ID NO: 430; test: reactivity with the epitope peptide, method not detailed
[9] = target: T1, CAPRIN-1 protein expressed on the cell …; test: reactivity with gallbladder cancer cell lines, method not detailed
[10] = target: T7, human CAPRIN-1 recombinant protein; test: reactivity with CAPRIN-1 protein, method not detailed

Row | Binder | cytotoxicity (ADCC, 51Cr release) on TGBC14TKB, human NK cells [1] [%] | binding result [3] | binding result [4] | also measured
1 | B1 | ≥ 15 | – | – | binding result [2]: binds
2 | B2 | 20 | binds | binds | –
3 | B3 | – | – | – | increase in fluorescence intensity over control [5]: ≥ 35%; binding result [6]: binds
4 | B4 | ≥ 15 | binds | binds | rate of increase in mean fluorescence intensity over control [7]: ≥ 20%
5 | B5 | – | – | – | binding result [8]: binds; binding result [9]: binds; binding result [10]: binds

— patent publication US20150299314A1 (TORAY INDUSTRIES, published 2015)
